Source: article PMC3597514

Columns and labels:
[1] = target: NbSPL6-Yc (N. benthamiana); assay: split reporter (BiFC, NanoBiT); as a5, but with the non-eliciting p50-Ob-tCFP in place of tCFP-p50-U1; percent of cells as the ratio to the cells seen with tCFP-p50-U1
[2] = target: NbSPL6-Yc (N. benthamiana); assay: split reporter (BiFC, NanoBiT); as a5, but with tCFP alone in place of tCFP-p50-U1

- percent of cells with citrine fluorescence (with p50-Ob-tCFP) (% of the cells) [1]: 13
- percent of cells with citrine fluorescence (with tCFP alone) (% of the cells) [2]: 10
B1: gN-Yn (receptor)
chain: MASSSSSSRWSYDVFLSFRGEDTRKTFTSHLYEVLNDKGIKTFQDDKRLEYGATIPGELCKAIEESQFAIVVFSENYATSRWCLNELVKIMECKTRFKQTVIPIFYDVDPSHVRNQKESFAKAFEEHETKYKDDVEGIQRWRIALNEAANLKGSCDNRDKTDADCIRQIVDQISSKLCKISLSYLQNIVGIDTHLEKIESLLEIGINGVRIMGIWGMGGVGKTTIARAIFDTLLGRMDSSYQFDGACFLKDIKENKRGMHSLQNALLSELLREKANYNNEEDGKHQMASRLRSKKVLIVLDDIDNKDHYLEYLAGDLDWFGNGSRIIITTRDKHLIEKNDIIYEVTALPDHESIQLFKQHAFGKEVPNENFEKLSLEVVNYAKGLPLALKVWGSLLHNLRLTEWKSAIEHMKNNSYSGIIDKLKISYDGLEPKQQEMFLDIACFLRGEEKDYILQILESCHIGAEYGLRILIDKSLVFISEYNQVQMHDLIQDMGKYIVNFQKDPGERSRLWLAKEVEEVMSNNTGTMAMEAIWVSSYSSTLRFSNQAVKNMKRLRVFNMGRSSTHYAIDYLPNNLRCFVCTNYPWESFPSTFELKMLVHLQLRHNSLRHLWTETKHLPSLRRIDLSWSKRLTRTPDFTGMPNLEYVNLYQCSNLEEVHHSLGCCSKVIGLYLNDCKSLKRFPCVNVESLEYLGLRSCDSLEKLPEIYGRMKPEIQIHMQGSGIRELPSSIFQYKTHVTKLLLWNMKNLVALPSSICRLKSLVSLSVSGCSKLESLPEEIGDLDNLRVFDASDTLILRPPSSIIRLNKLIILMFRGFKDGVHFEFPPVAEGLHSLEYLNLSYCNLIDGGLPEEIGSLSSLKKLDLSRNNFEHLPSSIAQLGALQSLDLKDCQRLTQLPELPPELNELHVDCHMALKFIHYLVTKRKKLHRVKLDDAHNDTMYNLFAYTMFQNISSMRHDISASDSLSLTVFTGQPYPEKIPSWFHHQGWDSSVSVNLPENWYIPDKFLGFAVCYSRSLIDTTAHLIPVCDDKMSRMTQKLALSECDTESSNYSEWDIHFFFVPFAGLWDTSKANGKTPNDYGIIRLSFSGEEKMYGLRLLYKEGPEVNALLQMRENSNEPTEHSTGIRRTQYNNRTSFYELING
